Measured values from PMC3151165 (2009).

Assays:
mu opioid receptor = biological target: T1, mu opioid receptor (Rattus norvegicus, UniProt P33535); test: radioligand competition
T1 chain: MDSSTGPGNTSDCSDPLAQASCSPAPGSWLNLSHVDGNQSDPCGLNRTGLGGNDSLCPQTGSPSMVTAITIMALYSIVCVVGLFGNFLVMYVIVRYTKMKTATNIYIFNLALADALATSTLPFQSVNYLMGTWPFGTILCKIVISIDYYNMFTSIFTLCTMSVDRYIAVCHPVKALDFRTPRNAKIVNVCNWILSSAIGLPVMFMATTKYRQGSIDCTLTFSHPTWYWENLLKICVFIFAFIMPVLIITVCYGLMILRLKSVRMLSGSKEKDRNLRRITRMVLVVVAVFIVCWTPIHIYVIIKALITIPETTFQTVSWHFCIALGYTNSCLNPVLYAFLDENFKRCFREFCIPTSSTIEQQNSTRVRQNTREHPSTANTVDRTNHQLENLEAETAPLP

delta opioid receptor = biological target: T2, delta opioid receptor (Mus musculus, UniProt P32300); test: radioligand competition
T2 chain: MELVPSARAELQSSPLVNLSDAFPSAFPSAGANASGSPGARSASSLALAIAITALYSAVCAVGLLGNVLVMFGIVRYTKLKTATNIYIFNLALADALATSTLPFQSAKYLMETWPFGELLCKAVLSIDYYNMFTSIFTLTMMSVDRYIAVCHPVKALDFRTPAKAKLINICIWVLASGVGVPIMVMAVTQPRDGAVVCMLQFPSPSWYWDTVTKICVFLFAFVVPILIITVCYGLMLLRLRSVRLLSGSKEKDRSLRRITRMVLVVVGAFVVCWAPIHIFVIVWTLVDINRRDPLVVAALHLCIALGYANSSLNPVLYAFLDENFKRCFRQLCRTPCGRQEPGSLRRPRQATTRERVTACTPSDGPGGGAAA

Binder | Ki (mu opioid receptor) [nM] | Ki (delta opioid receptor) [nM]
YAGFARRIRPK (D-Ala2, cis -CH=CH- bridge between residues 2 and 5 side chains, C-terminal amide) [cyclo[D-Ala2(-CH=CH-)Ala5]Dyn A-(1-11)NH2 cis (3)] | 2.33 | 9.3
YGGFARRARPK (cis -CH=CH- bridge between Ala5 and Ala8 side chains, C-terminal amide) [cyclo[Ala5(-CH=CH-)Ala8]Dyn A-(1-11)NH2 cis (5)] | 93 | –
YAGFARRIRPK (trans -CH=CH- bridge between Ala2 and Ala5 side chains, C-terminal amide) [cyclo[Ala2(-CH=CH-)Ala5]Dyn A-(1-11)NH2 trans (2)] | 180 | 1130
YGGFARRARPK (trans -CH=CH- bridge between Ala5 and Ala8 side chains, C-terminal amide) [cyclo[Ala5(-CH=CH-)Ala8]Dyn A-(1-11)NH2 trans (6)] | 36 | –
YAGFARRIRPK (cis -CH=CH- bridge between Ala2 and Ala5 side chains, C-terminal amide) [cyclo[Ala2(-CH=CH-)Ala5]Dyn A-(1-11)NH2 cis (1)] | 763 | 7670
